T1: Human PTK7 Protein, His Tag (Acro Biosystems) (human, UniProt Q13308 31-704)
T1 construct: Bought His-tagged protein; also called CCK4; not shown: His tag
T1 sequence: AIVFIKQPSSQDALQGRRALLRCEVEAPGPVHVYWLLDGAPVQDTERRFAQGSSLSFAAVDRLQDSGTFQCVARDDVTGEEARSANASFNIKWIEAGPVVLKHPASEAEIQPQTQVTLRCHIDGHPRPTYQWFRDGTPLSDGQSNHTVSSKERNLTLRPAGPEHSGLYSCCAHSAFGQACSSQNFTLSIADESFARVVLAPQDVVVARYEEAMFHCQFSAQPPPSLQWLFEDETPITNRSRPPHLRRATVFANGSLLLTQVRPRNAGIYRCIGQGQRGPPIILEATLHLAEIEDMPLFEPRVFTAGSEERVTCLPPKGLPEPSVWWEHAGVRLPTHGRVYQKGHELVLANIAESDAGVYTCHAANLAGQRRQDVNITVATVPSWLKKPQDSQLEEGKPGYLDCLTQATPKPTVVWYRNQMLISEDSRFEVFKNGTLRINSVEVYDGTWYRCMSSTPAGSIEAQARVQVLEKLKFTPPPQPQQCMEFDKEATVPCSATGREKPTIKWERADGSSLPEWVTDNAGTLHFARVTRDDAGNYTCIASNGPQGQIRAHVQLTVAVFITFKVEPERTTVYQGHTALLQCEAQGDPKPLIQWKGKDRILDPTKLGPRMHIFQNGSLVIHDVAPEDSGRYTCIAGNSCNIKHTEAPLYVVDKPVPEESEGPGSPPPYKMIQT

B1: MYT11070 (antibody, V domains shown)
VH: EVQLVESGGGLVQPGGSLRLSCTASGLSLSSYWMSWVRQAPGKGLEWVGVISAGGNTYYANWAKGRFTISRDTSKNTVYLQMNSLRAEDTAVYFCARGADGYTNAAYVSNLWGQGTLVTVSS
VL: EIVMTQSPSTLSASVGDRVIITCQASQSISSWLSWYQQKPGKAPKLLIYKASTLASGVPSRFSGSGSGAEFTLTISSLQPDDFATYYCQSYFDSTTIAFGQGTKLTVL
notes: MYT9361 HC alanine variant
B2: MYT11095 (antibody, V domains shown)
VH: EVQLVESGGGLVQPGGSLRLSCTASGLSLSSYWMSWVRQAPGKGLEWVGVISAGGNTYYANWAKGRFTISRDTSKNTVYLQMNSLRAEDTAVYFCARGDDGYTNAAYVSNLWGQGTLVTVSS
VL: EIVMTQSPSTLSASVGDRVIITCQASQSISSWLSWYQQKPGKAPKLLIYKASTLASGVPSRFSGSGSGAEFTLTISSLQPDDFATYYCQSYFDHTTIAFGQGTKLTVL
notes: MYT9361 LC variant
B3: MYT11086 (antibody, V domains shown)
VH: EVQLVESGGGLVQPGGSLRLSCTASGLSLSSYWMSWVRQAPGKGLEWVGVISAGGNTYYANWAKGRFTISRDTSKNTVYLQMNSLRAEDTAVYFCARGDDGYTNAAYVSNLWGQGTLVTVSS
VL: EIVMTQSPSTLSASVGDRVIITCQASQSISSWLSWYQQKPGKAPKLLIYKASHLASGVPSRFSGSGSGAEFTLTISSLQPDDFATYYCQSYFDSTTIAFGQGTKLTVL
notes: MYT9361 LC variant
B4: MYT11076 (antibody, V domains shown)
VH: EVQLVESGGGLVQPGGSLRLSCTASGLSLSSYWMSWVRQAPGKGLEWVGVISAGGNTYYANWAKGRFTISRDTSKNTVYLQMNSLRAEDTAVYFCARGDDGYTNAAYVSNLWGQGTLVTVSS
VL: EIVMTQSPSTLSASVGDRVIITCQASQHISSWLSWYQQKPGKAPKLLIYKASTLASGVPSRFSGSGSGAEFTLTISSLQPDDFATYYCQSYFDSTTIAFGQGTKLTVL
notes: MYT9361 LC variant
B5: MYT11083 (antibody, V domains shown)
VH: EVQLVESGGGLVQPGGSLRLSCTASGLSLSSYWMSWVRQAPGKGLEWVGVISAGGNTYYANWAKGRFTISRDTSKNTVYLQMNSLRAEDTAVYFCARGDDGYTNAAYVSNLWGQGTLVTVSS
VL: EIVMTQSPSTLSASVGDRVIITCQASQSISSWLSWYQQKPGKAPKLLIYHASTLASGVPSRFSGSGSGAEFTLTISSLQPDDFATYYCQSYFDSTTIAFGQGTKLTVL
notes: MYT9361 LC variant
B6: MYT11090 (antibody, V domains shown)
VH: EVQLVESGGGLVQPGGSLRLSCTASGLSLSSYWMSWVRQAPGKGLEWVGVISAGGNTYYANWAKGRFTISRDTSKNTVYLQMNSLRAEDTAVYFCARGDDGYTNAAYVSNLWGQGTLVTVSS
VL: EIVMTQSPSTLSASVGDRVIITCQASQSISSWLSWYQQKPGKAPKLLIYKASTLASGVPSRFSGSGSGAEFTLTISSLQPDDFATYYCHSYFDSTTIAFGQGTKLTVL
notes: MYT9361 LC variant
B7: MYT11092 (antibody, V domains shown)
VH: EVQLVESGGGLVQPGGSLRLSCTASGLSLSSYWMSWVRQAPGKGLEWVGVISAGGNTYYANWAKGRFTISRDTSKNTVYLQMNSLRAEDTAVYFCARGDDGYTNAAYVSNLWGQGTLVTVSS
VL: EIVMTQSPSTLSASVGDRVIITCQASQSISSWLSWYQQKPGKAPKLLIYKASTLASGVPSRFSGSGSGAEFTLTISSLQPDDFATYYCQSHFDSTTIAFGQGTKLTVL
notes: MYT9361 LC variant
B8: MYT11073 (antibody, V domains shown)
VH: EVQLVESGGGLVQPGGSLRLSCTASGLSLSSYWMSWVRQAPGKGLEWVGVISAGGNTYYANWAKGRFTISRDTSKNTVYLQMNSLRAEDTAVYFCARGDDGYTNAAYVSNLWGQGTLVTVSS
VL: EIVMTQSPSTLSASVGDRVIITCQHSQSISSWLSWYQQKPGKAPKLLIYKASTLASGVPSRFSGSGSGAEFTLTISSLQPDDFATYYCQSYFDSTTIAFGQGTKLTVL
notes: MYT9361 LC variant
B9: MYT11098 (antibody, V domains shown)
VH: EVQLVESGGGLVQPGGSLRLSCTASGLSLSSYWMSWVRQAPGKGLEWVGVISAGGNTYYANWAKGRFTISRDTSKNTVYLQMNSLRAEDTAVYFCARGDDGYTNAAYVSNLWGQGTLVTVSS
VL: EIVMTQSPSTLSASVGDRVIITCQASQSISSWLSWYQQKPGKAPKLLIYKASTLASGVPSRFSGSGSGAEFTLTISSLQPDDFATYYCQSYFDSTTHAFGQGTKLTVL
notes: MYT9361 LC variant
B10: MYT11088 (antibody, V domains shown)
VH: EVQLVESGGGLVQPGGSLRLSCTASGLSLSSYWMSWVRQAPGKGLEWVGVISAGGNTYYANWAKGRFTISRDTSKNTVYLQMNSLRAEDTAVYFCARGDDGYTNAAYVSNLWGQGTLVTVSS
VL: EIVMTQSPSTLSASVGDRVIITCQASQSISSWLSWYQQKPGKAPKLLIYKASTLHSGVPSRFSGSGSGAEFTLTISSLQPDDFATYYCQSYFDSTTIAFGQGTKLTVL
notes: MYT9361 LC variant
B11: MYT11072 (antibody, V domains shown)
VH: EVQLVESGGGLVQPGGSLRLSCTASGLSLSSYWMSWVRQAPGKGLEWVGVISAGGNTYYANWAKGRFTISRDTSKNTVYLQMNSLRAEDTAVYFCARGDDGYTNAAYVSNLWGQGTLVTVSS
VL: EIVMTQSPSTLSASVGDRVIITCHASQSISSWLSWYQQKPGKAPKLLIYKASTLASGVPSRFSGSGSGAEFTLTISSLQPDDFATYYCQSYFDSTTIAFGQGTKLTVL
notes: MYT9361 LC variant
B12: MYT11080 (antibody, V domains shown)
VH: EVQLVESGGGLVQPGGSLRLSCTASGLSLSSYWMSWVRQAPGKGLEWVGVISAGGNTYYANWAKGRFTISRDTSKNTVYLQMNSLRAEDTAVYFCARGDDGYTNAAYVSNLWGQGTLVTVSS
VL: EIVMTQSPSTLSASVGDRVIITCQASQSISSHLSWYQQKPGKAPKLLIYKASTLASGVPSRFSGSGSGAEFTLTISSLQPDDFATYYCQSYFDSTTIAFGQGTKLTVL
notes: MYT9361 LC variant
B13: MYT11085 (antibody, V domains shown)
VH: EVQLVESGGGLVQPGGSLRLSCTASGLSLSSYWMSWVRQAPGKGLEWVGVISAGGNTYYANWAKGRFTISRDTSKNTVYLQMNSLRAEDTAVYFCARGDDGYTNAAYVSNLWGQGTLVTVSS
VL: EIVMTQSPSTLSASVGDRVIITCQASQSISSWLSWYQQKPGKAPKLLIYKAHTLASGVPSRFSGSGSGAEFTLTISSLQPDDFATYYCQSYFDSTTIAFGQGTKLTVL
notes: MYT9361 LC variant
B14: MYT11075 (antibody, V domains shown)
VH: EVQLVESGGGLVQPGGSLRLSCTASGLSLSSYWMSWVRQAPGKGLEWVGVISAGGNTYYANWAKGRFTISRDTSKNTVYLQMNSLRAEDTAVYFCARGDDGYTNAAYVSNLWGQGTLVTVSS
VL: EIVMTQSPSTLSASVGDRVIITCQASHSISSWLSWYQQKPGKAPKLLIYKASTLASGVPSRFSGSGSGAEFTLTISSLQPDDFATYYCQSYFDSTTIAFGQGTKLTVL
notes: MYT9361 LC variant
B15: MYT11074 (antibody, V domains shown)
VH: EVQLVESGGGLVQPGGSLRLSCTASGLSLSSYWMSWVRQAPGKGLEWVGVISAGGNTYYANWAKGRFTISRDTSKNTVYLQMNSLRAEDTAVYFCARGDDGYTNAAYVSNLWGQGTLVTVSS
VL: EIVMTQSPSTLSASVGDRVIITCQAHQSISSWLSWYQQKPGKAPKLLIYKASTLASGVPSRFSGSGSGAEFTLTISSLQPDDFATYYCQSYFDSTTIAFGQGTKLTVL
notes: MYT9361 LC variant
B16: MYT11097 (antibody, V domains shown)
VH: EVQLVESGGGLVQPGGSLRLSCTASGLSLSSYWMSWVRQAPGKGLEWVGVISAGGNTYYANWAKGRFTISRDTSKNTVYLQMNSLRAEDTAVYFCARGDDGYTNAAYVSNLWGQGTLVTVSS
VL: EIVMTQSPSTLSASVGDRVIITCQASQSISSWLSWYQQKPGKAPKLLIYKASTLASGVPSRFSGSGSGAEFTLTISSLQPDDFATYYCQSYFDSTHIAFGQGTKLTVL
notes: MYT9361 LC variant
B17: MYT11089 (antibody, V domains shown)
VH: EVQLVESGGGLVQPGGSLRLSCTASGLSLSSYWMSWVRQAPGKGLEWVGVISAGGNTYYANWAKGRFTISRDTSKNTVYLQMNSLRAEDTAVYFCARGDDGYTNAAYVSNLWGQGTLVTVSS
VL: EIVMTQSPSTLSASVGDRVIITCQASQSISSWLSWYQQKPGKAPKLLIYKASTLAHGVPSRFSGSGSGAEFTLTISSLQPDDFATYYCQSYFDSTTIAFGQGTKLTVL
notes: MYT9361 LC variant
B18: MYT11071 (antibody, V domains shown)
VH: EVQLVESGGGLVQPGGSLRLSCTASGLSLSSYWMSWVRQAPGKGLEWVGVISAGGNTYYANWAKGRFTISRDTSKNTVYLQMNSLRAEDTAVYFCARGDAGYTNAAYVSNLWGQGTLVTVSS
VL: EIVMTQSPSTLSASVGDRVIITCQASQSISSWLSWYQQKPGKAPKLLIYKASTLASGVPSRFSGSGSGAEFTLTISSLQPDDFATYYCQSYFDSTTIAFGQGTKLTVL
notes: MYT9361 HC alanine variant
B19: MYT11087 (antibody, V domains shown)
VH: EVQLVESGGGLVQPGGSLRLSCTASGLSLSSYWMSWVRQAPGKGLEWVGVISAGGNTYYANWAKGRFTISRDTSKNTVYLQMNSLRAEDTAVYFCARGDDGYTNAAYVSNLWGQGTLVTVSS
VL: EIVMTQSPSTLSASVGDRVIITCQASQSISSWLSWYQQKPGKAPKLLIYKASTHASGVPSRFSGSGSGAEFTLTISSLQPDDFATYYCQSYFDSTTIAFGQGTKLTVL
notes: MYT9361 LC variant

The binders below were run against T1, Human PTK7 Protein, His Tag (Acro …) (assay: BLI (Octet), antibody on anti-human Fc sensor, 50 nM PTK7; grade 2 = substantially similar binding relative to parent).

Binding result, binds:
B1
B2
B3
B4
B5
B6
B7
B8
B9
B10
B11
B12
B13
B14
B15
B16
B17
B18
B19
